# Data: patent US20070224124A1 (UNIVERSITY OF SOUTH FLORIDA, published 2007)
# T1: mSosI ( (endogenous in murine ES …, UniProt Q62245 1-1319))
# T1 construct: Its expression in ES cells was confirmed by immunoblot of whole cell lysate; also called mSos1
# T1 sequence (looked up): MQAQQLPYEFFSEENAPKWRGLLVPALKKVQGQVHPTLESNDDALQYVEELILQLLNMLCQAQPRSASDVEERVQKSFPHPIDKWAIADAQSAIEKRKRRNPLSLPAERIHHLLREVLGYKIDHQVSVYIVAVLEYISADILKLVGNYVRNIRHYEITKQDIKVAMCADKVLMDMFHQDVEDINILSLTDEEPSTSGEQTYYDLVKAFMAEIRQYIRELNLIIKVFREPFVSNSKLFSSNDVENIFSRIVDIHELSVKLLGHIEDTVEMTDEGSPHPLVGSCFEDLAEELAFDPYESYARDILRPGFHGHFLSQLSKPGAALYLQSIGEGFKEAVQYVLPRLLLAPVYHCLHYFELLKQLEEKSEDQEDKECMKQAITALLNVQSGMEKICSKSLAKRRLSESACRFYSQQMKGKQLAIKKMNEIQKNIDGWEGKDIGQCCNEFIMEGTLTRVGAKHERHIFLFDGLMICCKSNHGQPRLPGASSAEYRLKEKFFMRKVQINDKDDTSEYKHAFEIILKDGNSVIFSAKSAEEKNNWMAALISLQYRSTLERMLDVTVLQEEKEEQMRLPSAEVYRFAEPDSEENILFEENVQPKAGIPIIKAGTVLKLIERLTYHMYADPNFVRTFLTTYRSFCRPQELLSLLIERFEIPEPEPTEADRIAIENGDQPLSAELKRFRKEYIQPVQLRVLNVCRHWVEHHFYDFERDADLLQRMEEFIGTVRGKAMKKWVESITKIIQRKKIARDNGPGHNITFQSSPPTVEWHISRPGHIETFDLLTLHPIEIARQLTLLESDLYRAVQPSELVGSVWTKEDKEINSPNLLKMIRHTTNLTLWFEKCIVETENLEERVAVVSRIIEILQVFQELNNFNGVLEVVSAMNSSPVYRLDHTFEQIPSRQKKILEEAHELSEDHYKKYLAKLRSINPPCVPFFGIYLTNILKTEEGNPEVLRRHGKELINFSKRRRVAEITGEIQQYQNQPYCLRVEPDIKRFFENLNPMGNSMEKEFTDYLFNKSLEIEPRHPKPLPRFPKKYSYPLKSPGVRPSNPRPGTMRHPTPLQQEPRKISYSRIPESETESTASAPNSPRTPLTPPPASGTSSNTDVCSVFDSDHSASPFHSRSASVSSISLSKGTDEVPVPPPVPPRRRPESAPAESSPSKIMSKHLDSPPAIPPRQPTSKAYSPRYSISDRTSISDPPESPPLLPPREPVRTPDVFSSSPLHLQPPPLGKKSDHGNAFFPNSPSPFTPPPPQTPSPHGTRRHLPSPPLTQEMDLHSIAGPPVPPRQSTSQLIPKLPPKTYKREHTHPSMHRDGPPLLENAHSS
# B1: Shc adapter protein (other, UniProt P98083 1-579, looked up)
# chain: MDLLPPKPKYNPLRNESLSSLEEGASGSTPPEELPSPSASSLGPILPPLPGDDSPTTLCSFFPRMSNLKLANPAGGRLGPKGEPGKAAEDGEGSAGAALRDSGLLPLLQDMNKLSGGGGRRTRVEGGQLGGEEWTRHGSFVNKPTRGWLHPNDKVMGPGVSYLVRYMGCVEVLQSMRALDFNTRTQVTREAISLVCEAVPGAKGATRRRKPCSRPLSSILGRSNLKFAGMPITLTVSTSSLNLMAADCKQIIANHHMQSISFASGGDPDTAEYVAYVAKDPVNQRACHILECPEGLAQDVISTIGQAFELRFKQYLRNPPKLVTPHDRMAGFDGSAWDEEEEEPPDHQYYNDFPGKEPPLGGVVDMRLREGAARPTLPSAQMSSHLGATLPIGQHAAGDHEVRKQMLPPPPCPGRELFDDPSYVNIQNLDKARQAGGGAGPPNPSLNGSAPRDLFDMKPFEDALRVPPPPQSMSMAEQLQGEPWFHGKLSRREAEALLQLNGDFLVRESTTTPGQYVLTGLQSGQPKHLLLVDPEGVVRTKDHRFESVSHLISYHMDNHLPIISAGSELCLQQPVDRKV
# notes: Its expression in ES cells was confirmed by immunoblot of whole cell lysate
# B2: s-SHIP (stem-SHIP; SH2-lacking isoform of SH2-containing inositol 5'-phosphatase, approximately 104 kd) (enzyme, mouse, UniProt Q9ES52-5 1-928, looked up)
# chain: MVAKLSQLTSLLSSIEDKVKSLLHEGSESTNRRSLIPPVTFEVKSESLGIPQKMHLKVDVESGKLIVKKSKDGSEDKFYSHKKILQLIKSQKFLNKLVILVETEKEKILRKEYVFADSKKREGFCQLLQQMKNKHSEQPEPDMITIFIGTWNMGNAPPPKKITSWFLSKGQGKTRDDSADYIPHDIYVIGTQEDPLGEKEWLELLRHSLQEVTSMTFKTVAIHTLWNIRIVVLAKPEHENRISHICTDNVKTGIANTLGNKGAVGVSFMFNGTSLGFVNSHLTSGSEKKLRRNQNYMNILRFLALGDKKLSPFNITHRFTHLFWLGDLNYRVELPTWEAEAIIQKIKQQQYSDLLAHDQLLLERKDQKVFLHFEEEEITFAPTYRFERLTRDKYAYTKQKATGMKYNLPSWCDRVLWKSYPLVHVVCQSYGSTSDIMTSDHSPVFATFEAGVTSQFVSKNGPGTVDSQGQIEFLACYATLKTKSQTKFYLEFHSSCLESFVKSQEGENEEGSEGELVVRFGETLPKLKPIISDPEYLLDQHILISIKSSDSDESYGEGCIALRLETTEAQHPIYTPLTHHGEMTGHFRGEIKLQTSQGKMREKLYDFVKTERDESSGMKCLKNLTSHDPMRQWEPSGRVPACGVSSLNEMINPNYIGMGPFGQPLHGKSTLSPDQQLTAWSYDQLPKDSSLGPGRGEGPPTPPSQPPLSPKKFSSSTANRGPCPRVQEARPGDLGKVEALLQEDLLLTKPEMFENPLYGSVSSFPKLVPRKEQESPKMLRKEPPPCPDPGISSPSIVLPKAQEVESVKGTSKQAPVPVLGPTPRIRSFTCSSSAEGRMTSGDKSQGKPKASASSQAPVPVKRPVKPSRSEMSQQTTPIPAPRPPLPVKSPAVLQLQHSKGRDYRDNTELPHHGKHRQEEGLLGRTAMQ
# notes: also called 8-SHIP protein isoform; 104-kd and 97-kd proteins
# Columns and labels:
# [1] = biological target: B2; test: co-immunoprecipitation from ES-TL1 cell lysate with P2C6 anti-SHIP antibody, immunoblot for Shc
# Description: (§1) FIG. 6 illustrates how ES cells express the 8-SHIP protein isoform that associates with the Grb2 adapter protein. (A) Immunoprecipitation and immunoblot detection of s-SHIP in ES cell lysates. […] No tyrosine phosphorylation of these proteins was detected when they were probed with the 4G10 anti-phosphotyrosine antibody. For comparison, lysates from 293T cells transfected with SHIP cDNA (lane 1) and s-SHIP cDNA (lane 2) were included in the blots. To further assess the tyrosine phosphorylation status of s-SHIP, timed LIF stimulation studies were performed. ES-TL1 cells incubated for 5 hours without LIF were stimulated with 2000 U/mL LIF for 0, 2, 5, or 10 minutes and were rapidly lysed. Equal amounts of total protein were immunoprecipitated with the P2C6 antibody and probed separately with the P2C6 and 4G10 antibodies (lanes 6-9). No tyrosine phosphorylation of s-SHIP was detected at any time point with the 4G10 antibody. For comparison, A20 8-lymphoid cells were stimulated with antiIgG antibody for 0 or 5 minutes, lysed, immunoprecipitated with P2C6, and probed with P2C6 and 4G10 (lanes 3, 4), showing prominent tyrosine phosphorylation of SHIP at 5 minutes. Molecular mass standards are indicated on the right. (B) s-SHIP associates with Grb2 but not Shc in ES cells. ES-TL1 cell lysates were prepared and immunoprecipitated with the […] anti-SHIP monoclonal antibody. […]
# mSosI = biological target: T1, mSosI; test: co-immunoprecipitation from ES-TL1 cell lysate with P2C6 anti-SHIP antibody, immunoblot for mSosI
# Description: as §1
binding result [1],binding result (mSosI),Binder
no binding,,B1
,no binding,B2
